# Reference: patent publication US20140213513A1 (Sanofi, priority 2012, published 2014)
# *1 amine or outer side, *2 acyl side, *3 side chain or, on linkers, in order; H or OH if unused. Where no end group is shown, it is not given here. Side-chain parts run from the residue outwards. [ ]: non-standard residue; d: D form. The star is where a group is joined. γGlu = O=C(O)[C@H](CCC(=O)[*:2])N[*:1]; Stearoyl = CCCCCCCCCCCCCCCCCC(=O)*; Palmitoyl = CCCCCCCCCCCCCCCC(=O)*; Aib = CC(C)(N)C(=O)O
# T1: human GIP receptor (human, UniProt P48546 22-466)
# T1 sequence (looked up): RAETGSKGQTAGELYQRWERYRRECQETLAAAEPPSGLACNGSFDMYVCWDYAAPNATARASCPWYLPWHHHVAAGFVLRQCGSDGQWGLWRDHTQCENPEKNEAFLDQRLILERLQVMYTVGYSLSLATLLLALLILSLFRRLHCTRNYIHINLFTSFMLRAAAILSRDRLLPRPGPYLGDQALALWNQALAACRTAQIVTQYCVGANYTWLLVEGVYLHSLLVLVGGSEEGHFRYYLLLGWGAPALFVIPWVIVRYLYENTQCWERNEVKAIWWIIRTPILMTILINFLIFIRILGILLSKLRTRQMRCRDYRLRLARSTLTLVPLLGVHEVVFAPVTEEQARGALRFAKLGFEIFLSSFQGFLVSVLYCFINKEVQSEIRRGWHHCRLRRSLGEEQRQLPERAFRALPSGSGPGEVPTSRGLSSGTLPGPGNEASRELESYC
# What was measured:
# Test in all cases: cell-based or functional assay
# [1] = molecular target: human glucagon receptor (human, UniProt P47871 26-477)
# [2] = molecular target: T1, human GIP receptor
# [3] = molecular target: human GLP-1 receptor (human, UniProt P43220 24-463)
# human glucagon receptor, sequence (P47871 26-477): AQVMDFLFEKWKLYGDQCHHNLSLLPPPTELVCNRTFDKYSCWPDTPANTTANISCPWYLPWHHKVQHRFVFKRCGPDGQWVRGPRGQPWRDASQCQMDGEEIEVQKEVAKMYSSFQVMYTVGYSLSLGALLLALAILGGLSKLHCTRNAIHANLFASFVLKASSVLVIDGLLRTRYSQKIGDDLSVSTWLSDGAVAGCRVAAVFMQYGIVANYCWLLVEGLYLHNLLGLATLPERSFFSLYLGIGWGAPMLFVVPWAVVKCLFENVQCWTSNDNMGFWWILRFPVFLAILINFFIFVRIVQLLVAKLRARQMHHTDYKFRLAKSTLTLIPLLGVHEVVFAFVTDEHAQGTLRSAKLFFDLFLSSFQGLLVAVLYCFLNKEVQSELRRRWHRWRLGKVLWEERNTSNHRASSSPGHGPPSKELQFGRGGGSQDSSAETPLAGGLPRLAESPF
Binder,EC50 hGLUC R [1],EC50 hGIP R [2],EC50 hGLP-1 R [3]
Y[Aib]QGTFTSDLSIQK([γGlu-Palmitoyl])EK[Aib]AA[Aib]EFIEWLKNTGPSSGAPPPS-NH2 (N-terminus assumed; SMILES CCCCCCCCCCCCCCCC(=O)N[C@@H](CCC(=O)NCCCC[C@H](NC(=O)[C@H](CCC(N)=O)NC(=O)[C@@H](NC(=O)[C@H](CO)NC(=O)[C@H](CC(C)C)NC(=O)[C@H](CC(=O)O)NC(=O)[C@H](CO)NC(=O)[C@@H](NC(=O)[C@H](Cc1ccccc1)NC(=O)[C@@H](NC(=O)CNC(=O)[C@H](CCC(N)=O)NC(=O)C(C)(C)NC(=O)[C@@H](N)Cc1ccc(O)cc1)[C@@H](C)O)[C@@H](C)O)[C@@H](C)CC)C(=O)N[C@@H](CCC(=O)O)C(=O)N[C@@H](CCCCN)C(=O)NC(C)(C)C(=O)N[C@@H](C)C(=O)N[C@@H](C)C(=O)NC(C)(C)C(=O)N[C@@H](CCC(=O)O)C(=O)N[C@@H](Cc1ccccc1)C(=O)N[C@H](C(=O)N[C@@H](CCC(=O)O)C(=O)N[C@@H](Cc1c[nH]c2ccccc12)C(=O)N[C@@H](CC(C)C)C(=O)N[C@@H](CCCCN)C(=O)N[C@@H](CC(N)=O)C(=O)N[C@H](C(=O)NCC(=O)N1CCC[C@H]1C(=O)N[C@@H](CO)C(=O)N[C@@H](CO)C(=O)NCC(=O)N[C@@H](C)C(=O)N1CCC[C@H]1C(=O)N1CCC[C@H]1C(=O)N1CCC[C@H]1C(=O)N[C@@H](CO)C(N)=O)[C@@H](C)O)[C@@H](C)CC)C(=O)O) [exendin-4 peptide analogue SEQ ID NO: 9],0.445 nM,0.009 nM,0.0055 nM
Y[Aib]QGTFTSDLSIQK([γGlu-Palmitoyl])DKRAAQDFIEWLKKGGPSSGAPPPS-NH2 (N-terminus assumed; SMILES CCCCCCCCCCCCCCCC(=O)N[C@@H](CCC(=O)NCCCC[C@H](NC(=O)[C@H](CCC(N)=O)NC(=O)[C@@H](NC(=O)[C@H](CO)NC(=O)[C@H](CC(C)C)NC(=O)[C@H](CC(=O)O)NC(=O)[C@H](CO)NC(=O)[C@@H](NC(=O)[C@H](Cc1ccccc1)NC(=O)[C@@H](NC(=O)CNC(=O)[C@H](CCC(N)=O)NC(=O)C(C)(C)NC(=O)[C@@H](N)Cc1ccc(O)cc1)[C@@H](C)O)[C@@H](C)O)[C@@H](C)CC)C(=O)N[C@@H](CC(=O)O)C(=O)N[C@@H](CCCCN)C(=O)N[C@@H](CCCNC(=N)N)C(=O)N[C@@H](C)C(=O)N[C@@H](C)C(=O)N[C@@H](CCC(N)=O)C(=O)N[C@@H](CC(=O)O)C(=O)N[C@@H](Cc1ccccc1)C(=O)N[C@H](C(=O)N[C@@H](CCC(=O)O)C(=O)N[C@@H](Cc1c[nH]c2ccccc12)C(=O)N[C@@H](CC(C)C)C(=O)N[C@@H](CCCCN)C(=O)N[C@@H](CCCCN)C(=O)NCC(=O)NCC(=O)N1CCC[C@H]1C(=O)N[C@@H](CO)C(=O)N[C@@H](CO)C(=O)NCC(=O)N[C@@H](C)C(=O)N1CCC[C@H]1C(=O)N1CCC[C@H]1C(=O)N1CCC[C@H]1C(=O)N[C@@H](CO)C(N)=O)[C@@H](C)CC)C(=O)O) [exendin-4 peptide analogue SEQ ID NO: 44],0.0552 nM,0.0255 nM,0.0097 nM
Y[Aib]EGTFTSDLSIQK([γGlu-Stearoyl])ESKAAQEFIEWLKAGGPSSGAPPPS-NH2 (N-terminus assumed; SMILES CCCCCCCCCCCCCCCCCC(=O)N[C@@H](CCC(=O)NCCCC[C@H](NC(=O)[C@H](CCC(N)=O)NC(=O)[C@@H](NC(=O)[C@H](CO)NC(=O)[C@H](CC(C)C)NC(=O)[C@H](CC(=O)O)NC(=O)[C@H](CO)NC(=O)[C@@H](NC(=O)[C@H](Cc1ccccc1)NC(=O)[C@@H](NC(=O)CNC(=O)[C@H](CCC(=O)O)NC(=O)C(C)(C)NC(=O)[C@@H](N)Cc1ccc(O)cc1)[C@@H](C)O)[C@@H](C)O)[C@@H](C)CC)C(=O)N[C@@H](CCC(=O)O)C(=O)N[C@@H](CO)C(=O)N[C@@H](CCCCN)C(=O)N[C@@H](C)C(=O)N[C@@H](C)C(=O)N[C@@H](CCC(N)=O)C(=O)N[C@@H](CCC(=O)O)C(=O)N[C@@H](Cc1ccccc1)C(=O)N[C@H](C(=O)N[C@@H](CCC(=O)O)C(=O)N[C@@H](Cc1c[nH]c2ccccc12)C(=O)N[C@@H](CC(C)C)C(=O)N[C@@H](CCCCN)C(=O)N[C@@H](C)C(=O)NCC(=O)NCC(=O)N1CCC[C@H]1C(=O)N[C@@H](CO)C(=O)N[C@@H](CO)C(=O)NCC(=O)N[C@@H](C)C(=O)N1CCC[C@H]1C(=O)N1CCC[C@H]1C(=O)N1CCC[C@H]1C(=O)N[C@@H](CO)C(N)=O)[C@@H](C)CC)C(=O)O) [exendin-4 peptide analogue SEQ ID NO: 42],8.47 nM,0.0129 nM,0.0062 nM
Y[Aib]QGTFTSDLSIQK([γGlu-Palmitoyl])DSRAAQDFIEWLKKGGPSSGAPPPS-NH2 (N-terminus assumed; SMILES CCCCCCCCCCCCCCCC(=O)N[C@@H](CCC(=O)NCCCC[C@H](NC(=O)[C@H](CCC(N)=O)NC(=O)[C@@H](NC(=O)[C@H](CO)NC(=O)[C@H](CC(C)C)NC(=O)[C@H](CC(=O)O)NC(=O)[C@H](CO)NC(=O)[C@@H](NC(=O)[C@H](Cc1ccccc1)NC(=O)[C@@H](NC(=O)CNC(=O)[C@H](CCC(N)=O)NC(=O)C(C)(C)NC(=O)[C@@H](N)Cc1ccc(O)cc1)[C@@H](C)O)[C@@H](C)O)[C@@H](C)CC)C(=O)N[C@@H](CC(=O)O)C(=O)N[C@@H](CO)C(=O)N[C@@H](CCCNC(=N)N)C(=O)N[C@@H](C)C(=O)N[C@@H](C)C(=O)N[C@@H](CCC(N)=O)C(=O)N[C@@H](CC(=O)O)C(=O)N[C@@H](Cc1ccccc1)C(=O)N[C@H](C(=O)N[C@@H](CCC(=O)O)C(=O)N[C@@H](Cc1c[nH]c2ccccc12)C(=O)N[C@@H](CC(C)C)C(=O)N[C@@H](CCCCN)C(=O)N[C@@H](CCCCN)C(=O)NCC(=O)NCC(=O)N1CCC[C@H]1C(=O)N[C@@H](CO)C(=O)N[C@@H](CO)C(=O)NCC(=O)N[C@@H](C)C(=O)N1CCC[C@H]1C(=O)N1CCC[C@H]1C(=O)N1CCC[C@H]1C(=O)N[C@@H](CO)C(N)=O)[C@@H](C)CC)C(=O)O) [exendin-4 peptide analogue SEQ ID NO: 43],0.114 nM,0.0482 nM,0.007 nM
Y[Aib]QGTFTSDLSIQK([γGlu-Palmitoyl])EKRAAQLFIEWLKNGGPSSGAPPPS-NH2 (N-terminus assumed; SMILES CCCCCCCCCCCCCCCC(=O)N[C@@H](CCC(=O)NCCCC[C@H](NC(=O)[C@H](CCC(N)=O)NC(=O)[C@@H](NC(=O)[C@H](CO)NC(=O)[C@H](CC(C)C)NC(=O)[C@H](CC(=O)O)NC(=O)[C@H](CO)NC(=O)[C@@H](NC(=O)[C@H](Cc1ccccc1)NC(=O)[C@@H](NC(=O)CNC(=O)[C@H](CCC(N)=O)NC(=O)C(C)(C)NC(=O)[C@@H](N)Cc1ccc(O)cc1)[C@@H](C)O)[C@@H](C)O)[C@@H](C)CC)C(=O)N[C@@H](CCC(=O)O)C(=O)N[C@@H](CCCCN)C(=O)N[C@@H](CCCNC(=N)N)C(=O)N[C@@H](C)C(=O)N[C@@H](C)C(=O)N[C@@H](CCC(N)=O)C(=O)N[C@@H](CC(C)C)C(=O)N[C@@H](Cc1ccccc1)C(=O)N[C@H](C(=O)N[C@@H](CCC(=O)O)C(=O)N[C@@H](Cc1c[nH]c2ccccc12)C(=O)N[C@@H](CC(C)C)C(=O)N[C@@H](CCCCN)C(=O)N[C@@H](CC(N)=O)C(=O)NCC(=O)NCC(=O)N1CCC[C@H]1C(=O)N[C@@H](CO)C(=O)N[C@@H](CO)C(=O)NCC(=O)N[C@@H](C)C(=O)N1CCC[C@H]1C(=O)N1CCC[C@H]1C(=O)N1CCC[C@H]1C(=O)N[C@@H](CO)C(N)=O)[C@@H](C)CC)C(=O)O) [exendin-4 peptide analogue SEQ ID NO: 45],0.0797 nM,0.0234 nM,0.0114 nM
Y[Aib]QGTFTSDLSIQK([γGlu-Palmitoyl])EKRAVQLFIEWLKNGGPSSGAPPPS-NH2 (N-terminus assumed; SMILES CCCCCCCCCCCCCCCC(=O)N[C@@H](CCC(=O)NCCCC[C@H](NC(=O)[C@H](CCC(N)=O)NC(=O)[C@@H](NC(=O)[C@H](CO)NC(=O)[C@H](CC(C)C)NC(=O)[C@H](CC(=O)O)NC(=O)[C@H](CO)NC(=O)[C@@H](NC(=O)[C@H](Cc1ccccc1)NC(=O)[C@@H](NC(=O)CNC(=O)[C@H](CCC(N)=O)NC(=O)C(C)(C)NC(=O)[C@@H](N)Cc1ccc(O)cc1)[C@@H](C)O)[C@@H](C)O)[C@@H](C)CC)C(=O)N[C@@H](CCC(=O)O)C(=O)N[C@@H](CCCCN)C(=O)N[C@@H](CCCNC(=N)N)C(=O)N[C@@H](C)C(=O)N[C@H](C(=O)N[C@@H](CCC(N)=O)C(=O)N[C@@H](CC(C)C)C(=O)N[C@@H](Cc1ccccc1)C(=O)N[C@H](C(=O)N[C@@H](CCC(=O)O)C(=O)N[C@@H](Cc1c[nH]c2ccccc12)C(=O)N[C@@H](CC(C)C)C(=O)N[C@@H](CCCCN)C(=O)N[C@@H](CC(N)=O)C(=O)NCC(=O)NCC(=O)N1CCC[C@H]1C(=O)N[C@@H](CO)C(=O)N[C@@H](CO)C(=O)NCC(=O)N[C@@H](C)C(=O)N1CCC[C@H]1C(=O)N1CCC[C@H]1C(=O)N1CCC[C@H]1C(=O)N[C@@H](CO)C(N)=O)[C@@H](C)CC)C(C)C)C(=O)O) [exendin-4 peptide analogue SEQ ID NO: 46],0.53 nM,0.0202 nM,0.0235 nM
